Measurements as given in patent US20210188971A1.

Biological target: TSHR on engineered CHO cells (UniProt P16473)
Assay: flow cytometry on CHO cells engineered with TSHR, detected with anti-human IgG1 Fc-Alexa Fluor 488

B1: M22 Fabs (control of Example 16) (Fab, V domains shown)
VH: QVQLVQSGAEVKKPGESLKISCRGSGYRFTSYWINWVRQLPGKGLEWMGRIDPTDSYTNYSPSFKGHVTVSADKSINTAYLQWSSLKASDTGMYYCARLEPGYSSTWSVNWGQGTLVTVSS
VL: LTVLTQPPSVSGAPRQRVTISCSGNSSNIGNNAVNWYQQLPGKAPKLLIYYDDQLPSGVSDRFSGSRSGTSASLAIRGLQSEDEADYYCTSWDDSLDSQLFGGGTRLTVL
Q: Which concentration at which fluorescence intensity peaked does the source give for B1 here?
A: 30 µg/mL
